{"source": "patent US20190030156A1", "about": "(TECHNOVAX, published 2019)", "binders": {"B1": {"name": "Palivizumab (Synagis, MedImmune) (antibody, V domains shown)", "VH": "QVTLRESGPALVKPTQTLTLTCTFSGFSLSTSGMSVGWIRQPPGKALEWLADIWWDDKKDYNPSLKSRLTISKDTSKNQVVLKVTNMDPADTATYYCARSMITNWYFDVWGAGTTVTVSS", "VL": "DIQMTQSPSTLSASVGDRVTITCKCQLSVGYMHWYQQKPGKAPKLLIYDTSKLASGVPSRFSGSGSGTEFTLTISSLQPDDFATYYCFQGSGYPFTFGGGTKLEIK"}}, "target": "RSV fusion glycoprotein (F) of RSV A2 strain virus (human respiratory syncytial virus A2 …, UniProt P03420 26-574)", "sequence (P03420 26-574)": "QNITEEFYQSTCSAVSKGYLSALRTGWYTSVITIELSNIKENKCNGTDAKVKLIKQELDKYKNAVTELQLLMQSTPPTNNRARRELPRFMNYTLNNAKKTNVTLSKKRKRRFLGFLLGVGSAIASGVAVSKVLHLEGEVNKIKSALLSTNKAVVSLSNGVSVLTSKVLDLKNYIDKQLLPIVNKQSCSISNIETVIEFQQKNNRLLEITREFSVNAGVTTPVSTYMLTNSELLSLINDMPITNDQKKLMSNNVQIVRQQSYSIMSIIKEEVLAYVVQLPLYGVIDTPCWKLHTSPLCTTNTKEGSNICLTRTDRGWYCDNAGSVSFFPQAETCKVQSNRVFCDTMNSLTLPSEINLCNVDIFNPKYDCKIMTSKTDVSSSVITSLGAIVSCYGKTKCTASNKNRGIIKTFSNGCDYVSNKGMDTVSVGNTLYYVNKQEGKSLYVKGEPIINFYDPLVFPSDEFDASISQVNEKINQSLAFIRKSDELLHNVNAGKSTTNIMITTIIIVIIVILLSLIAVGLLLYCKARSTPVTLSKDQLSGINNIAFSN", "experiment": "cell-based or functional assay"}
{"binder": "B1", "values": [{"measurement": "IC50 neutralizing activity (plaque reduction neutralization test, RSV A2 on HEp-2 cells)", "result": 2, "unit": "µg/mL"}]}
